The text below walks through data of PMC9444977 (Cancer research, 2022).

Broadly, the Kd is the free concentration of one partner at which half of the binding sites on the other are occupied at equilibrium, for simple one-to-one binding.

The experiment concerns the target T1, FHH-tagged Siah1, recombinant purified (UniProt Q8IUQ4 1-282, labeled with RED-tris-NTA 2nd generation dye (Monolith His-Tag labeling kit)).
T1 sequence (looked up): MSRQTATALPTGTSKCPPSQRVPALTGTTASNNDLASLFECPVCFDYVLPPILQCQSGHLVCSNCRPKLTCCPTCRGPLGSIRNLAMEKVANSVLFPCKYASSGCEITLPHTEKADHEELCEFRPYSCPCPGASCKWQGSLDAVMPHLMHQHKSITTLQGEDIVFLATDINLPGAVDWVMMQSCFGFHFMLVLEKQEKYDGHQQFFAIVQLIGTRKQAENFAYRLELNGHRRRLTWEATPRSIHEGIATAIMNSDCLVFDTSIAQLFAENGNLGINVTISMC
Briefly: MST.

B1: n-terminus FLAG-tagged CacyBP, recombinant purified (natural protein, UniProt Q9HB71 1-228, looked up)
chain: MASEELQKDLEEVKVLLEKATRKRVRDALTAEKSKIETEIKNKMQQKSQKKAELLDNEKPAAVVAPITTGYTVKISNYGWDQSDKFVKIYITLTGVHQVPTENVQVHFTERSFDLLVKNLNGKSYSMIVNNLLKPISVEGSSKKVKTDTVLILCRKKVENTRWDYLTQVEKECKEKEKPSYDTETDPSEGLMNVLKKIYEDGDDDMKRTINKAWVESREKQAKGDTEF
As for B1, the Kd turned out to be 9.8 µM.
